The results in this text go back to publication doi:10.1101/2024.10.12.618001.

The data set is described as follows: SEC. For orientation: Size exclusion chromatography separates by hydrodynamic size, large species first.

Consider “CD95L-IZ-His (His8-TEV-Cys-IZ-CD95L (137-281), secreted form)”, for which the “percent trimers in solution (Gaussian fit of the SEC curve)” value is given as “occurs in a trimeric state (i.e. 62%)”.
